PMC5356841 (2016)

B1: 3E9 Fab (Fab, V domains shown)
VH: EVQLVESGGGLVQPGGSLRLSCAASGFNLYYSSMHWVRQAPGKGLEWVASIYPSYGSTYYADSVKGRFTISADTSKNTAYLQMNSLRAEDTAVYYCARNGRYPGFLKRAHKRLLNFKAYVMDYWGQGTLVTVSS
VL: DIQMTQSPSSLSASVGDRVTITCRASQSVSSAVAWYQQKPGKAPKLLIYSASSLYSGVPSRFSGSRSGTDFTLTISSLQPEDFATYYCQQGSWYLITFGQGTKVEIK
B2: 2B5 Fab (Fab, V domains shown)
VH: EVQLVESGGGLVQPGGSLRLSCAASGFNLSYSSMHWVRQAPGKGLEWVASIYPYSGYTYYADSVKGRFTISADTSKNTAYLQMNSLRAEDTAVYYCARIGVNAWAVKMSQRMLATRGSGWYVMDYWGQGTLVTVSS
VL: DIQMTQSPSSLSASVGDRVTITCRASQSVSSAVAWYQQKPGKAPKLLIYSASSLYSGVPSRFSGSRSGTDFTLTISSLQPEDFATYYCQQSSSYPYSPITFGQGTKVEIK

Target: individual catalytic domain of human MT1-MMP (MT1-CAT) (human, UniProt P50281 114-287, biotin (EZ-Link sulfo-NHS-LC-biotin, 1:20 enzyme-biotin molar ratio) in the Fab binding ELISA only; unlabelled in the competition ELISA and the cleavage assays)
Assay: ELISA

Binder	Kd [nM]
B1	45
B2	21
